# Measurements published in US20080311122A1, “Antagonists of Hmgb1 and/or Rage and Methods of Use Thereof” (Medimmune, LLC, priority 2005, published 2008).
# Entries after “also recorded” stand apart in the source; their conditions may differ.
# T1: HMG2 (Bos taurus, UniProt P40673)
# T1 construct: from tissue; host or cells: calf thymus (as read from the sentence)
# T1 sequence (P40673 1-209): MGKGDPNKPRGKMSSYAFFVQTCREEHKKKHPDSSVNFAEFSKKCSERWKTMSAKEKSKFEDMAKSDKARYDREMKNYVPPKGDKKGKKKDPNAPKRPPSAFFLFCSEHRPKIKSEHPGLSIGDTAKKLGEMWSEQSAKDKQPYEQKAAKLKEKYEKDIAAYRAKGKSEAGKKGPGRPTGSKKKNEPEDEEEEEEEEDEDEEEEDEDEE
# B1: E11: human anti-HMG1 antibody, recognizes HMG1 A-Box; VL/VH aa SEQ ID NO: 24/26 (antibody, listed as Homo sapiens, V domains shown)
# VH: EVQLLESGGGLVQPGGSLRLSCAASGFTFSRYQMNWVRQAPGKGLEWVSSISPSGGHTHYADSVKGRFTISRDNSKNTLYLQMNSLRAEDTAVYYCAKDGRQGKISTVDHWGQGTLVTVSS
# VL: AQDIQMTQSPGTLSLSPGERATLSCRASQSVRSNFLAWYQQKPGQAPRLLIYGASRRASGIPDRFSGSGFGADFTLSISRLEPEDFAVYYCQQYGSSPNTFGQGSRVEIK
# B2: S16: human anti-HMG1 antibody, ATCC PTA-6259; VL/VH aa SEQ ID NO: 13/15 (antibody, listed as Homo sapiens, V domains shown)
# VH: EVQLLESGGGLVQPGGSLRLSCAASGFTFSWYSMLWVRQAPGKGLEWVSYISPSGGFTNYADSVKGRFTISRDNSKNTLYLQMNSLRAEDTAVYYCARWDYNSGWYYDHWGQGTLVTVSS
# VL: AQDIQMTQSPDTLSLSPGERATLSCRASQSVNSRNLAWYQQKPGQAPRLLIYGASTRATGIPDRFSGSVSGTEFTLTISSLQPDDFATYYCQQYNSYFTFGQGTKLEIK
# B3: G20: human anti-HMG1 antibody; VL/VH aa SEQ ID NO: 46/48 (antibody, listed as Homo sapiens, V domains shown)
# VH: EVQLLESGGGLVQPGGSLRLSCAASGFTFSWYDMFWVRQAPGKGLEWVSWISPSGGYTKYADSVKGRFTISRDNSKNTLYLQMNSLRAEDTAMYYCARSGLDYYDSSGYLDAFDIWGQGTMVTVSS
# VL: AQDIQMTQSPSSVSASVGDRVTITCRASQDVSIWLAWYQQKPGKAPKLLIFGASRLQSGVPSRFSGSRSGADFTLTIDSVQPEDFASYYCQQADSFPLTFGGGTKVEIK
# B4: S10: human anti-HMG1 antibody; VL/VH aa SEQ ID NO: 58/60 (antibody, listed as Homo sapiens, V domains shown)
# VH: EVQLLESGGGLVQPGGSLRLSCAASGFTFSWYDMWWVRQAPGKGLEWVSWIVPSGGITAYADSVKGRFTISRDNSKNTLYLQMNSLRAEDTATYYCARGNYGPSPFDYWGQGTLVTVSS
# VL: AQDIQMTQSPGTLSLSPGERATLSCRATQSVRKNFLAWYQQKPGQAPRLLIYDASSRATGIPDRFSGSGSGTDFTLTISRLEPEDFAVYYCQQYGNSPIIFGQGTRLEIK
# B5: S12: human anti-HMG1 antibody; VL/VH aa SEQ ID NO: 62/64 (antibody, listed as Homo sapiens, V domains shown)
# VH: EVQLLESGGGLVQPGGSLRLSCAASGFTFSKYIMHWVRQAPGKGLEWVSGIVPSGGLTEYADSVKGRFTISRDNSKNTLYLQMNSLRAEDTATYYCAKEIFGQFDYWGQGTLVTVSS
# VL: AQSALTQPPSVSAAPRQRVTISCSGSTSNIGNNAVTWYQYFPGKAPKLLIYSDNQRPSGVPDRFSGSKSGTSASLAITGLQAEDEADYYCQSYDRGLSVVFGGGTKLTVL
# B6: G9: human anti-HMG1 antibody; VL/VH aa SEQ ID NO: 34/36 (antibody, listed as Homo sapiens, V domains shown)
# VH: EVQLLESGGGLVQPGGSLRLSCAASGFTFSSYDMFWVRQAPGKGLEWVSRISPSGGYTYYADSVKGRFTISRDNSKNTLYLQMNSLRAEDTAVYYCARLRYFDSRGYAFDIWGQGTMVTVSS
# VL: AQDIQMTQSPGTLSLSPGERATLSCRASQSVRSSYLAWYQQKPGQAPRLLIYGASTRATGIPDRFSGSGSGTDFTLTISRLEPEDFAVYYCQQYGTSRWTFGQGTKVEIK
# B7: S17: human anti-HMG1 antibody; VL/VH aa SEQ ID NO: 70/72 (antibody, listed as Homo sapiens, V domains shown)
# VH: EVQLLESGGGLVQPGGSLRLSCAASGFTFSYYDMHWVRQAPGKGLEWVSRISPSGGYTWYADSVKGRFTISRDNSKNTLYLQMNSLRAEDTAVYYCTRGRYTSGWHEYFDPWGQGTLVTVSS
# VL: AQDIQMTQSPSSLSASVGDRVTITCRASQSIGTYLNWYQQKPGTAPKVLIYAASSLQSGVPSRFSGSGSGTDFTLTISSLQPEDFSTYYCQQSYNTPRTFGQGTKLEIK
# B8: G2: human anti-HMG1 IgG1 from Fab phage display library; VL/VH aa SEQ ID NO: 30/32 (antibody, listed as Homo sapiens, V domains shown)
# VH: EVQLLESGGGLVQPGGSLRLSCAASGFTFSWYKMQWVRQAPGKGLEWVSGISPSGGSTAYADSVKGRFTISRDNSKNTLYLQMNSLRAEDTAVYYCAKMGLFNTGNSYVDYWGQGTLVTVSS
# VL: AQSELTQPPSVSEAPGQRVTISCSGSTSNIGNNAVIWYQQLPGKAPKLLIYYDDLLPSGVSDRFSGSKSGTSGSLAISGLQSEDEADYYCASWDDNLNGPLFGGGTKLTVL
# Legend:
# [1] = Isoelectric focusing gel electrophoresis; assay type: physicochemical
# Description: Isoelectric Focusing Gel Electrophoresis: Isoelectric points were determined using a Pharmacia Biotech Multiphor 2 electrophoresis system with a multi temp 3 refrigerated bath recirculation unit and an EPS 3501 XL power supply. Pre-cast ampholine gels (Amersham Biosciences, pI range 2.5-10) were loaded with 5 μg of protein. Broad range pI marker standards (Amersham, pI range 3-10, 8 μL) were used to determine relative pI for the Mabs. Electrophoresis was performed at 1500 V, 50 mA for 105 minutes. The gel was fixed using a Sigma fixing solution (5×) diluted with purified water to 1×. Staining was performed overnight at room temperature using Simply Blue stain (Invitrogen). Destaining was carried out with a solution that consisted of 25% ethanol, 8% acetic acid and 67% purified water. Isoelectric points were determined using a Bio-Rad Densitometer relative to calibration curves of the standards.
# [2] = target: T1, HMG2; test: Binding to HMG1 vs. HMG2 ELISA; set-up: species or system calf; conditions: immobilized antigen
# Description: Binding to HMG1 vs. HMG2: Ultra high-binding ELISA plates (ThermoLab systems, #3855) were coated with either 5 ug/mL of Calf thymus HMGB1 or HMBG2 diluted in 10 mM Phosphate buffered saline (PBS), pH 7.2 and incubate overnight at 4 degrees. The plates were washed twice with Ca and Mg free PBS and 100 microliters of anti-HMGB1 antibody diluted in 10 mM PBS, pH 7.2+1% bovine serum albumin (BSA) to a final concentration of 10 ug/mL was added to each well and the plates were incubated 1 hour at room temperature. The wells were washed three times with 100 μl of PBS, pH 7.2. HRP labeled goat-anti-human IgG Kappa-chain (KPL, #14-10-10) and goat-anti-human IgG Lambda-chain (KPL, #14-10-11) were diluted in 10 mM PBS+1% BSA 1:1000 and 100 μl were added to each well and incubated for 1 hour at room temperature. The wells were then washed three times with 100 μl of PBS, pH 7.2. OPD substrate (Pierce chemical company, #34006) was prepared following the manufacturers instructions and 100 μl of prepared substrate was added to each well and the plates incubated at room temperature in the dark for 20-30 minutes. The reaction was stopped with the addition of 100 μl of 2M H2SO4, and the plates read on a plate reader at a wavelength of 490 nm.
# [3] = Differential scanning calorimetry; assay type: physicochemical; set-up: unit: °C; conditions: in °C (unit assumed)
# Description: Differential Scanning Calorimetry: Thermal melting temperatures (Tm) were measured with a VP-DSC (MicroCal, LLC) using a scan rate of 1.0° C./min and a temperature range of 25-120° C. A filter period of 8 seconds was used along with a 5 minute pre-scan thermostating. Samples were prepared by dialysis into 25 mM Histidine-HCl, pH 6 using Pierce dialysis cups (3.5 kD). Average Mab concentrations were 50 μg/mL as determined by A280. Melting temperatures were determined following manufacturer procedures using Origin software supplied with the system. Briefly, multiple baselines were run with buffer in both the sample and reference cell to establish thermal equilibrium. After the baseline was subtracted from the sample thermogram, the data were concentration normalized and fitted using the deconvolution function.
# [4] = tested on: HMG1 (recombinant, native; immobilized, soluble); test: Direct and sandwich (capture) ELISA comparing forms of HMG1; assay type: binding; conditions: for binding to immobilized versus soluble HMG1: two ELISA formats, rHMG1; for binding to recombinant HMG1 versus native HMG1: capture ELISA
# Description: Direct ELISA (immobilized HMG1): Individual wells of a 96-well immunoplate (EIA/RIA plate, High binding, Costar) were coated with HMGB-1 at 5 μg/ml in PBS at 4° C. overnight. The plate was then blocked with 4% milk powder dissolved in PBS at 37° C. for 1 hour. The blocking solution was removed and replaced with human anti-HMG1 antibodies at various concentrations (see FIG. 4A). The plate was then washed (ELX-405 Plate washer, BIO-TEK) and secondary antibody (anti-human IgG-HRP, PIERCE) was added at a final concentration of 1:125,000 at 37° C. for 1 hour. HRP activity was detected with Sureblue HRP substrate (KPL). Plates were read at 450 nm using a Kinetic Microplate Reader (Molecular Devices).
# Sandwich ELISA (soluble HMG1): Immunoplates (EIA/RIA plate, High binding, Costar) were coated with anti human IgG Fc at 10 μg/ml in PBS (pH 7.2) and incubated at 4° C. overnight. The coating reagent was removed and the plates were rinsed briefly with PBS. The plates were then blocked with 4% milk for 1 hour at 37° C. and rinsed with PBS. The anti-HMG1 antibodies were diluted in 4% milk. For serial dilutions, the antibodies were used at a starting concentration of 20 μg/ml. The diluted anti-HMG1 antibodies were then added into plate and incubated for 1 hr at 37° C. The plate was then washed 10 times with PBST (PBS/0.1% tween 20) and incubate with antigen (HMGB1, 2 μg/ml; or 0.7 μg/ml for native HMGB1) in 4% milk and incubated at 37° C. for 1 h. The plate was then wash 10 times and incubated with mouse anti-HMGB1, 1 μg/ml in 4% milk at 37° C. for 1 h. The plate was washed 10 times and incubated with anti-mouse IgG-HRP at 1:1000 at 37° C. for 1 h. The plate was then washed and developed. HRP activity was detected with Sureblue HRP substrate (KPL). Plates were read at 450 nm using a Kinetic Microplate Reader (Molecular Devices).
molecule,measurement,setting,value
B1,PI,[1],8.92
same,relative binding to HMG1 and HMG2,[2],some binding to HMG2; also recorded: bind better to HMG2 than to HMG1; also recorded: higher binding affinity for HMG2
same,Tm,[3],66.3
same,binding to immobilized versus soluble HMG1,[4],bind better to soluble rHMG1; also recorded: higher affinity for soluble HMG1
B2,PI,[1],8.11
same,relative binding to HMG1 and HMG2,[2],some binding to both HMG1 and HMG2
same,Tm,[3],71.4
same,binding to recombinant HMG1 versus native HMG1,[4],binds both recombinant and native HMG1; also recorded: binding all forms of HMG1; also recorded: bind both forms of HMG1
same,binding to immobilized versus soluble HMG1,[4],bound slightly better to immobilized rHMG1
B3,PI,[1],7.8
same,relative binding to HMG1 and HMG2,[2],specific for HMG1
same,Tm,[3],71.2
same,binding to immobilized versus soluble HMG1,[4],bind better to soluble rHMG1
B4,PI,[1],8.76
same,relative binding to HMG1 and HMG2,[2],specific for HMG1
same,Tm,[3],75.3
same,binding to recombinant HMG1 versus native HMG1,[4],better binding to rHMG1; also recorded: discriminating between recombinant and the various native forms; also recorded: bind better to recombinant HMG1 than to native nuclear HMG1
same,binding to immobilized versus soluble HMG1,[4],bound slightly better to immobilized rHMG1
B5,PI,[1],8.73
same,relative binding to HMG1 and HMG2,[2],some binding to both HMG1 and HMG2
same,Tm,[3],66.9
same,binding to immobilized versus soluble HMG1,[4],bound slightly better to immobilized rHMG1
B6,PI,[1],9.01
same,relative binding to HMG1 and HMG2,[2],specific for HMG1
same,Tm,[3],77.9
same,binding to immobilized versus soluble HMG1,[4],little difference in binding to immobilized or soluble HMG1
B7,PI,[1],8.7
same,relative binding to HMG1 and HMG2,[2],specific for HMG1
same,Tm,[3],90.0
same,binding to immobilized versus soluble HMG1,[4],to a lesser extent S17 have a higher affinity for soluble HMG1
B8,PI,[1],7.78
same,relative binding to HMG1 and HMG2,[2],specific for HMG1
same,Tm,[3],67.1
same,binding to immobilized versus soluble HMG1,[4],little difference in binding to immobilized or soluble HMG1
